Experimental findings from paper PMC13433802, “Structure of the NAT10 acetyltransferase and mechanism of tRNA acetylation” (Nature Communications, 2026) are described below.

Data set [1] concerns the target T1, CtNAT10 (Chaetomium thermophilum NAT10; Kre33) (Thermochaetoides thermophila, UniProt G0S273).
T1 construct: codon-optimised synthetic gene; Sf9 (functional assays and 9B0I) or E. coli (9AYM, 9B0E)
T1 sequence (G0S273 1-1073): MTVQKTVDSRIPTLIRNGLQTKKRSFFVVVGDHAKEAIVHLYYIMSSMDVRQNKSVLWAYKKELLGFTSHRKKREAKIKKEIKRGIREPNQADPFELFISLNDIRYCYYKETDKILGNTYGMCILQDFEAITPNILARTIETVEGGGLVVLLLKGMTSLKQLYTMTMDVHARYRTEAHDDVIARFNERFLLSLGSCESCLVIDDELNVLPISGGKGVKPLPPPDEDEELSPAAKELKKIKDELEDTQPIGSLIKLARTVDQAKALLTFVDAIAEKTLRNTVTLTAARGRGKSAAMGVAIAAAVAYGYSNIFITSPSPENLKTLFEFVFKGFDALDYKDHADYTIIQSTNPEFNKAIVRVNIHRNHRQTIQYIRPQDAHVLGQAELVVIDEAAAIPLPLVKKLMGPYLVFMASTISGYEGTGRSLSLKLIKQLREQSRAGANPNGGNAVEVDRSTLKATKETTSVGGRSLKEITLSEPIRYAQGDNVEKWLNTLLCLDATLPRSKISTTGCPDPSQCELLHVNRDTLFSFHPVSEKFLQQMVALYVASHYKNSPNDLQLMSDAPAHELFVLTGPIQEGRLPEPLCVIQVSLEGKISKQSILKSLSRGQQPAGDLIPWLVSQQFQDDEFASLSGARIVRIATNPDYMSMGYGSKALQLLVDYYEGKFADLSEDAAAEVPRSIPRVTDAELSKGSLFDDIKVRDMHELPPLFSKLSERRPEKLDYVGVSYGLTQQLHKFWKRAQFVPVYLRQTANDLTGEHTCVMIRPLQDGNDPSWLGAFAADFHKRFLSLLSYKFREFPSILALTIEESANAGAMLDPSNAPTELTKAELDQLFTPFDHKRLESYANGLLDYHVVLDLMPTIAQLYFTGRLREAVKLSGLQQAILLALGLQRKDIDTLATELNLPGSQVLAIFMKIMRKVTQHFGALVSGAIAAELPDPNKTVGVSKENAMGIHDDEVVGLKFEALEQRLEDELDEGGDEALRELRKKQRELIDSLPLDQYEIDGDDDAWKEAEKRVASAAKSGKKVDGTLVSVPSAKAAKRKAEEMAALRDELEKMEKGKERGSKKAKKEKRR
The data set is described as follows: differential scanning fluorimetry, SYPRO orange. The data set is classed as binding. Particulars: apo Tm 42.0 ± 0.3 °C, 5 mM MgCl2, Hepes pH 7.5, Tm with ligand, not a shift.

The target of data set [2] is Chaetomium thermophilum NAT10 (CtNAT10), Sf9-produced recombinant (Chaetomium thermophilum). Nature of the data set: mass photometry; 1 ul of 200 nM protein stock into 19 ul dilution buffer (10 nM); 300 mM NaCl, 25 mM Hepes-NaOH pH 7.5, 1 mM TCEP; room temperature.
Data set [3] has as its target Chaetomium thermophilum NAT10 (CtNAT10), E. coli-produced recombinant (Chaetomium thermophilum). The description is as above.
Data set [4] has as its target T2, CtNAT10 WT (Chaetomium thermophilum, UniProt G0S273 1-1073).
T2 sequence: T1 sequence (G0S273 1-1073)
The data set is described as follows: EMSA; no THUMPD1; 0.5 mM ATP, 0.1 mM acetyl-CoA; 50 mM Hepes-KOH pH 7.6, 90 mM NaCl (Fig 1B) or 75 mM NaCl + 0.2 mg/ml BSA (Fig S4A), 12 mM KCl, 10 mM MgCl2, 1 mM DTT, 0.5 mM ATP, 0.1 mM acetyl-CoA; Fig 1B 15. Conditions: protein: recombinant; tags: N-terminal 6xHis; chain copies: 2; tRNA fold. Background: A gel shift assay detects complexes by their altered migration in electrophoresis.

Data set [5] addresses T2, CtNAT10 WT. The data set is described as follows: EMSA; 0.5 mM ATP, 0.1 mM acetyl-CoA; 50 mM Hepes-KOH pH 7.6, 90 mM NaCl (Fig 1B) or 75 mM NaCl + 0.2 mg/ml BSA (Fig S4A), 12 mM KCl, 10 mM MgCl2, 1 mM DTT, 0.5 mM ATP, 0.1 mM acetyl-CoA; Fig 1B 15. Particulars: protein: recombinant; tags: N-terminal 6xHis; chain copies: 2; tRNA fold.

On to `Nc1ncnc2c1ncn2[C@@H]1O[C@H](COP(=O)(O)OP(=O)(O)OP(=O)(O)O)[C@@H](O)[C@H]1O` [ATP], for which, in data set [1] (ligand series 0.25-2500 μM), the Tm is 53.8 ± 0.1 °C.

One may read the stoichiometry N as a count of units in the complex or per binding partner. For the molecule “Chaetomium thermophilum NAT10 (CtNAT10), Sf9-produced recombinant (enzyme)”, the stoichiometry N in data set [2] is 2.

For the molecule `CC(=O)SCCNC(=O)CCNC(=O)[C@H](O)C(C)(C)COP(=O)(O)OP(=O)(O)OC[C@H]1O[C@@H](n2cnc3c(N)ncnc32)[C@H](O)[C@@H]1OP(=O)(O)O` [acetyl-CoA], the Tm in data set [1] (ligand series 0.25-2500 μM) was found to be 46.1 ± 0.1 °C.

With “Chaetomium thermophilum NAT10 (CtNAT10), E. coli-produced recombinant (enzyme)”, in data set [3], the stoichiometry N was found to be 2.

`CC(C)(COP(=O)(O)OP(=O)(O)OC[C@H]1O[C@@H](n2cnc3c(N)ncnc32)[C@H](O)[C@@H]1OP(=O)(O)O)[C@@H](O)C(=O)NCCC(=O)NCCSCC(=O)Nc1ccn([C@@H]2O[C@H](CO)[C@@H](O)[C@H]2O)c(=O)n1` [cytidine-amide-CoA]: the Tm in data set [1] (ligand series 0.20-2000 μM) amounted to 46.4 ± 0.1 °C.

B1: CttRNAAla (IVT) (structured_RNA)
RNA: GGGCGUGUAGCUCAGUUGGUAGAGCGUUCGCUUAGCAUGCGAGAGGUCCUGGGUUCGAUUCCCAGCCCGUCCA
As for B1, the binding result with CtNAT10 WT [4] is given as “binds”.

B2: ct-tRNASer (synthetic) (structured_RNA)
RNA: GACAACUUGGCCGAGUGGUUAAGGCGACAGACUUGAAAUCUGUUGGGUUCGCCCUCACAGGUUCGAAUCCUGUAGUUGUCG
For B2, in the data set with CtNAT10 WT [5], the binding result is given as “binds”.

B3: ct-tRNALeu (synthetic) (structured_RNA)
RNA: GGCAAGAUGGCCGAGCGGUCCAAGGCGCCAGGUUCAGGUCCUGGUCUCCGCAAGGGGGCGUGAGUUCGAAUCUCACUCUUGUCA
On to B3, for which, in the data set with CtNAT10 WT [5], the binding result is “binds”.
